In article PMC2148051, “Crystal structures of Leptospira interrogans FAD-containing ferredoxin-NADP^+ reductase and its complex with NADP^+” (BMC Structural Biology, 2007):

Tests used:
LepFNR [1] = target: T1, LepFNR (Leptospira interrogans, UniProt Q8EY89); assay: X-ray crystal structure, […] Å; assay type: binding; conditions: noncovalently bound prosthetic group, extended conformation
T1 construct: gene LA_4327; expressed in E. coli (pET32JO-LepFNR) as thioredoxin fusion, thioredoxin removed with thrombin; FAD holoenzyme; C-terminal residue Tyr314
T1 sequence (Q8EY89 entry or part of it): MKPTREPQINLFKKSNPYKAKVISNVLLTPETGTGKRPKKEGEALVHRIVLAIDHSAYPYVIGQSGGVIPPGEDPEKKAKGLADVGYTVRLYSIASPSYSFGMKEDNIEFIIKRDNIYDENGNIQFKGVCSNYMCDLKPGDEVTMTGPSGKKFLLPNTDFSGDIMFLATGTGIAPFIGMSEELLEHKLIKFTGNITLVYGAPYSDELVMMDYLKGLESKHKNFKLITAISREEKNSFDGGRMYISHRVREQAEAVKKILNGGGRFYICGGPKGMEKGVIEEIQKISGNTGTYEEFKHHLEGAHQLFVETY

P. sativum FNR = target: T2, P. sativum FNR (Lathyrus oleraceus, UniProt P10933); assay: difference absorption spectroscopy titration; assay type: binding; conditions: read-out: Kd (μM, NADP^+)
T2 construct: gene PETH; plastidic enzyme
T2 sequence (P10933 53-360): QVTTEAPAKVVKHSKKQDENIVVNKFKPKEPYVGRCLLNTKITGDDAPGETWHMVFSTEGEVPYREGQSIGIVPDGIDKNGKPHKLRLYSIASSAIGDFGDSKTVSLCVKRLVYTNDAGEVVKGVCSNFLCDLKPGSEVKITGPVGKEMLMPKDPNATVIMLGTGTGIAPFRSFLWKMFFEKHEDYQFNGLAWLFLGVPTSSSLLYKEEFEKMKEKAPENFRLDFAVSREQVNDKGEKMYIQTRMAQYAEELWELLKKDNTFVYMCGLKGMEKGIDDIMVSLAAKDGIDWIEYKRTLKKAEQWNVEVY
Source text: difference absorption spectroscopy titration on P. sativum FNR

LepFNR [2] = target: T1, LepFNR; assay: difference absorption spectroscopy titration; assay type: binding
Source text: difference absorption spectroscopy titration on LepFNR

[3] = tested on: NC(=O)C1=CN([C@@H]2O[C@H](COP(=O)(O)OP(=O)(O)OC[C@H]3O[C@@H](n4cnc5c(N)ncnc54)[C@H](OP(=O)(O)O)[C@@H]3O)[C@@H](O)[C@H]2O)C=CC1; assay: purified protein; conditions: 1 mM potassium ferricyanide, NADPH regenerated with glucose-6-phosphate dehydrogenase, 50 mM Tris-HCl, pH 8, 30°C
purified protein = substrate: NC(=O)C1=CN([C@@H]2O[C@H](COP(=O)(O)OP(=O)(O)OC[C@H]3O[C@@H](n4cnc5c(N)ncnc54)[C@H](OP(=O)(O)O)[C@@H]3O)[C@@H](O)[C@H]2O)C=CC1; assay: purified protein; assay type: biochemical, Lathyrus oleraceus; conditions: 1 mM potassium ferricyanide, NADPH regenerated with glucose-6-phosphate dehydrogenase, 50 mM Tris-HCl, pH 8, 30°C

Molecule: Cc1cc2nc3c(=O)[nH]c(=O)nc-3n(C[C@H](O)[C@H](O)[C@H](O)COP(=O)(O)OP(=O)(O)OC[C@H]3O[C@@H](n4cnc5c(N)ncnc54)[C@H](O)[C@@H]3O)c2cc1C [FAD]
- X-ray crystal structure, 2.43 Å (LepFNR [1]): LepFNR accommodates the FAD molecule in an extended conformation between the two enzyme domains

Molecule: NC(=O)c1ccc[n+]([C@@H]2O[C@H](COP(=O)(O)OP(=O)(O)OC[C@H]3O[C@@H](n4cnc5c(N)ncnc54)[C@H](OP(=O)(O)O)[C@@H]3O)[C@@H](O)[C@H]2O)c1 [NADP^+]
- Kd (P. sativum FNR): 32 ± 2 µM
- Kd (LepFNR [2]): 43 ± 3 µM

Molecule: LepFNR (Leptospira interrogans serovar Lai str. 56601)
- Km [3]: 19.5 ± 1.7 µM
- kcat [3]: 258 ± 13 s⁻¹
- kcat/Km [3]: 1.32e+07 M⁻¹ s⁻¹

B1: P. sativum FNR (Lathyrus oleraceus) (protein)
chain: T2 sequence (P10933 53-360)
notes: plastidic enzyme
- Km (purified protein): 19.0 ± 1.6 µM
- kcat (purified protein): 324 ± 16 s⁻¹
- kcat/Km (purified protein): 1.71e+07 M⁻¹ s⁻¹
